In US20230348614A1 (VISTERRA, published 2023):
Primed or numbered codes have the meaning given here. The star is where a group is joined. dPEG8″ = dPEG8: discrete polyethylene glycol-8 linker (between N-terminal biotin and the peptide); dPEG8 = discrete polyethylene glycol-8 linker (long chain); Biotin = O=C1N[C@H]2[C@H](CS[C@H]2CCCCC(=O)*)N1

Key:
[1] = target: T1, Recombinant soluble human CD138 extracellular domain (analyte in SPR) (human, UniProt P18827 23-254); assay: SPR (Carterra LSA): antibody captured by anti-human IgG, CD138 as analyte, pH 7.4, 1:1 fit
T1 construct: extracellular domain; also called recombinant CD138 (the antigen)
T1 sequence (looked up): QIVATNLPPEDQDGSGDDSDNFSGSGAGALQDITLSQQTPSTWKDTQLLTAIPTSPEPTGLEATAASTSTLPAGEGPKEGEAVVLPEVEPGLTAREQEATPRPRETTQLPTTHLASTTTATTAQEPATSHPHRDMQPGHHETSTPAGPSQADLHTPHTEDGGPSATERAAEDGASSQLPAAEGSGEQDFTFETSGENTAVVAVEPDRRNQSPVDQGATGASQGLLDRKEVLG
Text: This method as described, immobilizes the target (recombinant CD138) through biotinylation-streptavidin capture. Such a method may, in principle, lead to biases in binding due to either chemical modification of the capture ligand and/or avidity effects due to immobilization of this ligand on the biosensor. Moreover, this method depends on diffusion-based principles of dissociation leading to non-equilibrium binding states. Surface plasmon resonance is an orthogonal, commonly used method for determining binding kinetics and deriving affinity values based on these parameters. In this method, antibodies were directly coupled to the sensor chip and probed with several concentrations of recombinant CD138 (the antigen) varying from 100 nM to 41 nM. This evaluation was completed under two different pH conditions, i.e., pH 6.0 and pH […].
Antibody-CD138 binding was evaluated on a Carterra LSA high throughput SPR instrument. Binding experiments were carried out using binding buffer comprising 100 mM sodium phosphate, 150 mM NaCl and 0.05% Tween-20 buffer. Buffers were adjusted to target pH of 7.4 and 6.0, by use of sodium hydroxide or HCL, respectively. All steps were also carried out independently at these respective buffer pHs. Antibodies were captured on the SPR (CMDP) chip using an anti-human IgG covalently coupled to the CMDP chip based on standard protocols, as described by the instrument manufacturer, and to create a uniform lawn on the chip surface at a target 25 nM anti-CD138 antibody concentration. Binding to CD138 was achieved by uniformly passing binding analyte with increasing concentrations of CD138 (41 nM-100 nM) for 15 minutes and allowing dissociation for 20 minutes. Analyte was flowed over the chip at a rate of 2 milliliters/minute. Raw binding data were processed using kinetics data analysis software also provided by the manufacturer (Carterra) following as 2X background subtraction that used the first six injections of buffer blanks and the internal machine reference controls. Kinetic data was analysed using a global fit and assuming a 1:1 binding interaction. Further analysis of individual binding curves (sensorgrams) with best fits were used to refine the calculation of kinetic parameters.

Peptide 2D = target: T2, Peptide 2D (human); assay: BLI (Octet): biotinylated peptide (50 nM) on streptavidin sensors, mAb 4320 in solution, PBS pH 7.4; qualitative score
T2 construct: Chemically synthesized human CD138 peptide, 15 residues
T2 peptide: {Biotin-dPEG8″}-GEAVVLPEVEPGLTA-OH

Peptide 138-2-1 = target: T3, Peptide 138-2-1 (human); assay: BLI (Octet): biotinylated peptide (50 nM) loaded on streptavidin SA biosensors, mAb 4320 in solution, PBS pH 7.4 with 0.02% Tween-20
T3 construct: Chemically synthesized human CD138 peptide, 8 residues
T3 peptide: {Biotin-dPEG8}-VLPEVEPG-OH

Peptide 138-2-2 = target: T4, Peptide 138-2-2 (human); assay: as above
T4 construct: Chemically synthesized human CD138 peptide, 7 residues
T4 peptide: {Biotin-dPEG8}-LPEVEPG-OH

Peptide 138-2-3 = target: T5, Peptide 138-2-3 (human); assay: as above
T5 construct: Chemically synthesized human CD138 peptide, 8 residues
T5 peptide: {Biotin-dPEG8}-PEVEPGLT-OH

Peptide 6B = target: T6, Peptide 6B (human, N-terminal biotin through a long chain (dPEG8) linker (Biot-LC-); C-terminal -OH); assay: BLI (Octet): biotinylated peptide (50 nM) loaded on streptavidin SA biosensors, mAb 4320 in solution, 300 s association then dissociation, PBS pH 7.4 with 0.02% Tween-20
T6 construct: Chemically synthesized human CD138 peptide, 33 residues
T6 peptide: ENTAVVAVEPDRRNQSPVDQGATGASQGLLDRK

Peptide 6F = target: T7, Peptide 6F (human); assay: as above
T7 construct: Chemically synthesized human CD138 peptide, 15 residues
T7 peptide: {Biotin-dPEG8″}-ENTAVVAVEPDRRNQ-OH

Peptide 138-6-1 = target: T8, Peptide 138-6-1 (human); assay: as above
T8 construct: Chemically synthesized human CD138 peptide, 8 residues
T8 peptide: {Biotin-dPEG8}-VVAVEPDR-OH

Peptide 2A = target: T9, Peptide 2A (human, N-terminal biotin through a long chain (dPEG8) linker (Biot-LC-); C-terminal -OH); assay: as above
T9 construct: Chemically synthesized human CD138 peptide, 34 residues; also called Pep2a
T9 peptide: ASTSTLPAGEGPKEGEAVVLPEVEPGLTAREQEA

Peptide 2C = target: T10, Peptide 2C (human, N-terminal biotin through a long chain (dPEG8) linker (Biot-LC-); C-terminal -OH); assay: as above
T10 construct: Chemically synthesized human CD138 peptide, 20 residues
T10 peptide: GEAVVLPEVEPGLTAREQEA

Peptide 6 = target: T11, Peptide 6 (human, N-terminal biotin through a long chain (dPEG8) linker (Biot-LC-); C-terminal -OH); assay: as above
T11 construct: Chemically synthesized human CD138 peptide, 41 residues; also called Pep6
T11 peptide: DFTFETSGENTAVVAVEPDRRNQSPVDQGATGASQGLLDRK

- Kd [1]: 0.2 nM
- koff [1]: 8.5e-05 s⁻¹
- kon [1]: 370000 M⁻¹ s⁻¹
- binding result (Peptide 2D): binds
- binding result (Peptide 138-2-1): no binding
- binding result (Peptide 138-2-2): no binding
- binding result (Peptide 138-2-3): no binding
- binding result (Peptide 6B): binds
- binding result (Peptide 6F): binds
- binding result (Peptide 138-6-1): binds
- binding result (Peptide 2A): binds
- binding result (Peptide 2C): binds
- binding result (Peptide 6): binds
B1: mAb 4320 (parental humanized anti-CD138 antibody) (antibody, human IgG1, kappa, V domains shown)
VH: QVQLVQSGAEVKKPGASVKVSCKASGYSFSSYYMHWVRQAPGQGLEWMGTIHPSDSTTNYNQKFQGRVTMTVDTSTRTAYMELSSLRSEDTAVYYCANFVYWGQGTTVTVSS
VL: DIVMTQTPLSLSVTPGQPASISCKSSKSLLYKDGKTYLNWFLQKPGQSPQLLIYVVSTRASGVPDRFSGSGSGTDFTLKISRVEAEDVGVYYCQQLVEYPYTFGQGTKLEIKR
notes: Full-length IgG; heavy constant region human gamma 1 (m3 allotype), light chain kappa constant*01
